We go through one molecule from patent publication US7419670B2, “Method of treating arthritis with SERP-1 and an immunosuppressant” (Viron Therapeutics, Inc., priority 2000, dated 2008).

In assay [1] the test system is intimal fatty cellular proliferation associated with restenosis. The conditions noted are these: rabbits following balloon angioplasty; cited from earlier work.
Assay [2] deals with Collagen-induced Arthritis (CIA) in Rats. In words: CIA in rats: blinded radiographic scoring of the ankle joint at study termination. In kind it is in vivo, rats (Louvain). The conditions noted are these: mean ± SD; control group 4.27±1.68; p=0.02. The procedure: Twenty four rats (Louvain) weighing 125-150 g were housed at the UCLA vivarium facility and were fed standard laboratory chow and water.
Type II collagen, (CII) was prepared by pepsin treatment of chick sternal cartilage or was purchased from Genzyme (Boston, Mass.). Rats were anesthetized with ether and were immunized intradermally at several sites on the back, with 0.5 mg native CII solubilized in 0.1M acetic acid and emulsified in FIA (Difco, Detroit, Mich.). The signs and symptoms of rheumatoid arthritis developed over a period of ten days after immunization with collagen. (Oliver and Brahn, (1996) J. Rheumatol. 23, S44-56-60, incorporated herein by reference).
Cyclosporin at (4 mg/kg/d; sc) was administered by osmotic pump for the duration of the study. […]
The incidence and severity of chronic arthritis in SERP-1/CsA treated and untreated rats was evaluated via a number of study endpoints. During the experimental phase of the study, the individual hind limbs of each rat was evaluated daily and arthritis severity was quantified by assigning a score (0=normal, 4=maximum/hindpaw) based on increasing levels of swelling and periarticular erythema. The daily, arthritic severity scores for each rat were recorded from disease onset (day 10) until study termination (Table 1). […]

B1: SERP-1: viral serine protease inhibitor produced by malignant rabbit fibroma virus and myxoma virus; sequence of SEQ ID NO: 1 (protein, listed as Myxoma virus)
chain: MKYLVLVLCLTSCACRDIGLWTFRYVYNESDNVVFSPYGLTSALSVLRIAAGGNTKREIDVPESVVEDSDAFLALRELFVDASVPLRPEFTAEFSSRFNTSVQRVTFNSENVKDVINSYVKDKTGGDVPRVLDASLDRDTKMLLLSSVRMKTSWRHVFDPSFTTDQPFYSGNVTYKVRMMNKIDTLKTETFTLRNVGYSVTELPYKRRQTAMLLVVPDDLGEIVRALDLSLVRFWIRNMRKDVCQVVMPKFSVESVLDLRDALQRLGVRDAFDPSRADFGQASPSNDLYVTKVLQTSKIEADERGTTASSDTAITLIPRNALTAIVANKPFMFLIYHKPTTTVLFMGTITKGEKVIYDTEGRDDVVSSV
For the molecule B1, the “intimal fatty cellular proliferation associated with restenosis” value in assay [1] is “decrease”. Besides, the “joint erosions (radiographic score)” value in assay [2] was 2.58±1.88.
